Assay results as given in patent US20250002565A1.

Biological target: recombinant HIV gp41 (HIV)
Test: ELISA against recombinant gp41 (in PBS)

B1: recombinant class switched IgA2 antibody (antibody, V domains shown)
VH: QVQLVESGGGVVQPGRSLRLSCAASGFTFSSYAIHWVRQAPGKGLEWVAVISYDGSNRYYADSVKGRFTISRDNSKNTLYLQMNSLRPEDTAVYYCARDRFSAVASTPTYHNYFYMDVWGKGTTVTVSS
B1 gave an EC50 of 1.29 µg/mL.
